Earlier results, collected in patent publication US20220257789A1, “ANTI-TISSUE FACTOR ANTIBODY-DRUG CONJUGATES AND RELATED METHODS” (Iconic Therapeutics, Inc., priority 2019, published 2022).
Read-outs that look alike come from different tables or passages of the source.

How the values were obtained:
mTF = target: T1, mTF (Mus musculus, UniProt P20352); settings: binds when a KD value can be measured on a ForteBio Octet
T1 sequence (P20352 29-294): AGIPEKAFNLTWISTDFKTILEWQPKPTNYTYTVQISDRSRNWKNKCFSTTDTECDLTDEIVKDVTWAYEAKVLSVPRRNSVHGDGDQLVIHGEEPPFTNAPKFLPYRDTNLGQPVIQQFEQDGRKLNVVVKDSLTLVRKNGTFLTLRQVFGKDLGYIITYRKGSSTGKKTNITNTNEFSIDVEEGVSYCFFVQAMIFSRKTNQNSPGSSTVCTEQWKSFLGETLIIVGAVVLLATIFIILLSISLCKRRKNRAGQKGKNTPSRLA

Substance | binding to mouse TF (mTF) | dose limiting toxicities (6 mg/kg) | toxicity (dose of 2.2 mg/kg (de Bono et al. 2019)) | toxicity (dose of 3 mg/kg) | ALT and AST (in vivo)
humanized 5G9: humanized 5G9 anti-TF antibody described in Ngo et al., 2007; VH SEQ ID NO: 830, VL SEQ ID NO: 831 | do not bind to mouse TF | – | – | – | –
tisotumab vedotin: anti-TF fully human monoclonal antibody conjugated to MMAE with a protease-cleavable linker (Genmab) | – | grade 4 neutropenia and severe skin irritation and skin ulceration | dose limiting toxicity (e.g., neutropenia) | Neutropenia and skin toxicity | transient ALT and AST elevations
